As a reminder, the Kd is a measure of binding affinity in units of concentration. Low values mean tighter binding, high ones weaker binding.

Experiment [1] deals with rabbit intestinal mucin (rabbit). Description: binding to mucin-coupled Sepharose resin, Scatchard plot; rabbit mucin coupled to NHS-activated sepharose; different amounts of GbpA protein added to 400 µl resin, 2 h, room temperature; unbound protein measured after centrifugation; Kd from bound vs. bound/free.
The target is the same in experiment [2].
The target is the same in experiment [3]. Description: ELISA. A general note: ELISA stands for enzyme-linked immunosorbent assay.
Experiment [4] shares this target. Description: binding to mucin-coupled Sepharose resin, Scatchard plot.

Turning to “GbpA(Y61A), full length GbpA with tyrosine 61 changed to alanine (from UniProt Q9KLD5 24-485) (natural protein)”, the Kd came out at 14.1 µM in experiment [1] and 14.7 µM in experiment [3]. The inhibition of binding of biotinylated wild type V. cholerae N16961 to mucin-coated wells pre-treated with increasing concentrations of the protein; value at saturation in experiment [2] came out at 83%.
Turning to “GbpAD1, GbpA domain 1 (residues 24-203) (from UniProt Q9KLD5 24-203) (domain or fragment)”, the Kd in experiment [3] stood at 8.7 µM.
On to “GbpAD3, GbpA domain 3 (domain or fragment)”, for which the dissociation constant Kd in experiment [3] is 76.4 µM.
Take “GbpA_(D1–3), GbpA domains 1 to 3 (residues 24-414) (from UniProt Q9KLD5 24-414) (domain or fragment)”: the Kd in experiment [1] is 12.5 µM; in experiment [3] it was 13.2 µM.
Take “GbpAfl, mature full-length GlcNAc binding protein A (residues 24-485) (from UniProt Q9KLD5 24-485) (natural protein)”: the equilibrium dissociation constant (Kd) in experiment [4] came to 9.4 µM; in experiment [3], 7.8 µM. The inhibition of binding of biotinylated wild type V. cholerae N16961 to mucin-coated wells pre-treated with increasing concentrations of the protein; value at saturation in experiment [2] turned out to be 83%.

Values taken from publication PMC3257281.
